The target in this assay is T1, human PVRIG (Poliovirus Receptor Related Immunoglobulin Domain Containing Protein), full length on cells (human, UniProt Q6DKI7 41-326).
T1 construct: whole, on cells; Over-expressed on HEK293 (some pools flag-tagged) or endogenous on Jurkat, CA46, T cells, NK cells, TILs; also called hPVRIG; HEK hPVRIG
T1 sequence (looked up): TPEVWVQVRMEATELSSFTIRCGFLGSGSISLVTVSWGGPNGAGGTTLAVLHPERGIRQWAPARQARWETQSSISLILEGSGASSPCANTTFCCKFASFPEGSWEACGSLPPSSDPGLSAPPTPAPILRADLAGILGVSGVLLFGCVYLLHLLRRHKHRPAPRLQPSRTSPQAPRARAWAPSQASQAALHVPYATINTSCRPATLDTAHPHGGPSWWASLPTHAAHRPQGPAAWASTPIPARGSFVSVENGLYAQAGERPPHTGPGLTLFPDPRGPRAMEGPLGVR
Description: FACS dose titration on PVRIG over-expressing HEK293 cells. Here is the method: FACS screening of the reformatted antibodies was done similarly to the PPE based screen described herein, except that a dose-dependent titration of the purified antibodies was performed. The human PVRIG over-expressing HEK293 cells, or the un-transfected HEK293 cells, were incubated with varying concentrations (0-10 μg/ml) of the anti PVRIG antibodies or isotype controls in FACS buffer at 4° C. for 60 mins. […] Cells were washed twice and re-suspended in a final volume of 80 μl of FACS buffer and Propidium Iodide (Biolegend cat #421301) diluted 1:1000. Samples were analyzed using an Intellicyt HTFC screening system (Intellicyt). Data was analyzed using FlowJo (DeNovo), exported to Excel (Microsoft) and plotted in GraphPad Prism (GraphPad Software, Inc.).
All unique ELISA and FACS binders were reformatted for expression as human IgG1 molecules in Expi293 cells. […] These reformatted antibodies were tested for retained binding to PVRIG over-expressing HEK293 cells alongside an irrelevant human IgG1 isotype control. All antibodies were also tested against un-transfected HEK293 cells.

B1: CPA.7.017 human IgG1 (antibody, V domains shown)
VH: QVQLVQSGAEVKKPGSSVKVSCKASGGTFNNYGISWVRQAPGKGLEWMGQIIPLFGTTKYAQKFQGRVTIAADEPTSTAYMELGSLRSEDTAIYYCARDRMAADGMAVFDYWGQGTLVTVSS
VL: QSVLTQPPSVSGTPGQKVIISCSGSSSNIGRHFVFWYQQLPGTAPKLLIYKNDERPSGVPDRFSGSKSGTSASLAVSGLRSEDEADYYCSSWDAALNGVVFGGGTKLTVLG
A word on the Kd: it is the constant that tells how readily two partners part at equilibrium. Consider B1, for which the Kd worked out at 1.82 nM.

B2: CPA.7.012 human IgG1 (antibody, V domains shown)
VH: EVQLVETGGGLIQPGRSLRLSCAASGFTFSSYAMHWVRQAPGKGLEWVAVISYDGSNKYYADSVKGRFTISRDNSKNTLYLQMNSLRAEDTAVYYCARDVMVYCSSTSCYFYGMDVWGQGTTVTVSS
VL: DIQMTQSPSSLSASVGDRVTVTCQASQDIRDYLNWYQKKPGKAPKLLIYDASNLEAGVPSRFSGSGSGTDFTFTISGLQPEDVATYYCQQFENLPITFGQGTRLEIKR
The molecule B2 came in with a Kd of 0.3 nM.

B3: CPA.7.004 human IgG1 (antibody, V domains shown)
VH: EVQLVQSGAEVKKPGASVKVSCKVSGYTLTELSMHWVRQAPGKGLEWMGGFDPEDGETIYAQKFQGRVTMTEDTSTDTAYMELSSLRSEDTAVYYCATVSRVRGVINYYYYMDVWGKGTTVTVSS
VL: DVVMTQSPLSLPVTPGEPASISCRSSQSLLYRNGNNYLDWYLQKPGQSPQLLIYLGSNRASGVPDRFSGSGSGTDFTLKISRVEAEDVGVYYCMQALQTPPTFGGGTKLEIKR
Molecule B3 displayed a Kd of 21.7 nM.

B4: CPA.7.011 human IgG1 (antibody, V domains shown)
VH: EVQLVQSGAEVKKPGASVKVSCKVSGYTLTELSMHWVRQAPGKGLEWMGGFDPEDGETIYAQKFQGRVTMTEDTSTDTAYMELSSLRSEDTAVYYCATGPAAAGVGYYYYMDVWGKGTTVTVSS
VL: DVVMTQSPLSLPVTPGEPASISCRSSQSLLYRNGYNYLDWYLQKPGQSPQLLIYLGSNRASGVPDRFSGSGSGTDFTLKISRVEAEDVGVYYCMQALQTPPTFGQGTKVEIKR
For B4, the Kd amounted to 66 nM.

B5: CPA.7.024 human IgG1 (antibody, V domains shown)
VH: EVQLVQSGAEVKKPGSSVKVSCKASGGTFSSYAISWVRQAPGQGLEWMGGIIPIFGTANYAQKFQGRVTITADESTSTAYMELSSLRSEDTAVYYCARDAYYYDSSGYYNPDAFDIWGQGTMVTVSS
VL: DVVMTQSPLSLPVTPGEPASISCRSSQSLLHSNGYNYLDWYLQKPGQSPQLLIYLGSSRASGVPDRFSGSVSGTDFTLKISRVEAEDVGVYYCMQGLQTPRTFGRGTKLEIKR
B5 gave a Kd of 9.08 nM.

B6: CPA.7.022 human IgG1 (antibody, V domains shown)
VH: EVQLVQSGAEVKKPGASVKVSCKVSGYTLTELSMHWVRQAPGKGLEWMGGFDPEDGETIYAQKFQGRVTMTEDTSTDTAYMELSSLRSEDTAVYYCATGVPAAIGVYYYYYYMDVWGKGTTVTVSS
VL: DVVMTQSPLSLPVTPGEPASISCRSSQSLLYSNGYNYLDWYLQKPGQSPQLLISLGSNRASGVPDRFSGSGSGTDFTLKISRVEAEDVGVYYCMQALQSPVTFGGGTKVEIKR
B6 displayed a Kd of 4.17 nM.

B7: CPA.7.009 human IgG1 (antibody, V domains shown)
VH: EVQLVQSGAEVKKPGASVKVSCKVSGYTLTELSMHWVRQAPGKGLEWMGGFDPEDGETIYAQKFQGRVTMTEDTSTDTAYMELSSLRSEDTAVYYCATAKPGIAVAGQNYYYYYMDVWGKGTTVTVSS
VL: DVVMTQSPLSLPVTPGEPASISCRSSQSLLYRNGNNYLDWYLQKPGQSPQLLIYLGSNRASGVPDRFSGSGSGTDFTLKISRVEAEDVGVYYCMQALQTPPTFGGGTKLEIKR
The molecule B7 showed a Kd of 33 nM.

B8: CPA.7.023 human IgG1 (antibody, V domains shown)
VH: EVQLVQSGAEVKKPGASVKVSCKVSGYTLTELSMHWVRQAPGKGLEWMGGFDPEDGETIYAQKFQGRVTMTEDTSTDTAYMELSSLRSEDTAVYYCATDSRDGPAARGGYYYYMDVWGQGTTVTVSS
VL: DVVMTQSPLSLPVTLGQPASISCRSSQSLLYINGYNYLDWYLQKPGQSPQLLIYLGSNRASGVPDRFSGSGSGTDFTLKISRVEAEDVGVYYCMQALQTPPTFGQGTKVEIKR
In turn, B8 had a Kd of 4.08 nM.

B9: CPA.7.014 human IgG1 (antibody, V domains shown)
VH: EVQLVQSGAEVKKPGASVKVSCKVSGYTLTELSMHWVRQAPGKGLEWMGGFDPEDGETIYAQKFQGRVTMTEDTSTDTAYMELSSLRSEDTAVYYCATGVTTYYYYGMDVWGQGTTVTVSS
VL: DVVMTQSPLSLPVTPGEPASISCRSSQSLLYSNGNNFLDWYLQKPGQSPRLLISLGSNRASGVPDRFSGSGSGTDFTLKISRVEAEDVGIYYCMQALQTPPTFGQGTKVEIKR
For the molecule B9, binding was put at a Kd of 2.04 nM.

B10: CPA.7.047 human IgG1 (antibody, V domains shown)
VH: EVQLVQSGAEVKKPGASVKVSCKVSGYTLTELSMHWVRQAPGKGLEWMGGFDPEDGETIYAQKFQGRVTMTEDTSTDTAYMELSSLRSEDTAVYYCATAFPEATISYYYYMDVWGKGTTVTVSS
VL: DVVMTQSPLSLPVTPGEPASISCRSSQSLLYRNGYNYLDWYLQKPGQSPQLLIYWGSYRASGVPDRFSGSGSGTDFTLKISRVEAEDVGVYYCMQAVQNPPTFGQGTKVEIKR
B10 yielded a dissociation constant Kd of 5.36 nM.

B11: CPA.7.040 human IgG1 (antibody, V domains shown)
VH: EVQLVQSGAEVKKPGASVKVSCKVSGYTLTELSMHWVRQAPGKGLEWMGGFDPEDGETIYAQKFQGRVTMTEDTSTDTAYMELSSLRSEDTAVYYCATGVPAAIGVYYYYYYMDVWGKGTTVTVSS
VL: DVVMTQSPLSLPVTPGEPASISCRSSQSLLYRNGYNYLDWYLQKPGQSPQLLIYWGSYRASGVPDRFSGSGSGTDFTLKISRVEAEDVGVYYCMQAVQNPPTFGQGTKVDIKR
For B11, the Kd is 0.79 nM.

B12: CPA.7.019 human IgG1 (antibody, V domains shown)
VH: QVQLQESGPGLVKSSETLSLTCSVSGGSISNSNYYWGWIRQPPGKGLEWIGGIYYSGSTYYNPSLESRVTISEDTSKNQISLKLSSVTAADTAVYYCARGAWELSLGDWFDPWGPGTLVTVSS
VL: QSVLTQPPSVSGAPGQRVTISCTGSSSNIGAGYDIQWYQQLPGTAPKLLIYGNNNRPSGVPDRFSGSRSGTSASLAITGLQAEDEADYYCQSYDSSLSVYVVFGGGTQLTVLG
B12 had a Kd of 0.45 nM.

B13: CPA.7.018 human IgG1 (antibody, V domains shown)
VH: EVQLVQSGAEVKKPGASVKVSCKVSGYTLTELSMHWVRQAPGKGLEWMGGFDPEDGETIYAQKFQGRVTMTEDTSTDTAYMELSSLRSEDTAVYYCATEVPMVRGARRYYYYMDVWGKGTTVTVSS
VL: DVVMTQSPLFLAVTPGEPASISCRSSQTLLYINENNYLDWYVQKPGQSPQLLIYLGSTRASGVPDRFSGGGSGTDFTLTISRVEAEDVGLYYCMQGLQTPPTFGQGTRLEIKR
For B13, binding was characterised by a dissociation constant (Kd) of 9.29 nM.

B14: CPA.7.034 human IgG1 (antibody, V domains shown)
VH: EVQLVQSGAEVKKPGASVKVSCKVSGYTLTELSMHWVRQAPGKGLEWMGGFDPEDGETIYAQKFQGRVTMTEDTSTDTAYMELSSLRSEDTAVYYCATEDPGPVAGPYYYYGMDVWGQGTTVTVSS
VL: DVVMTQSPLVLPVTPGEPASISCRSSQSLLYINGYHYLDWYVQRPGQSPQLLIFLGSTRASGVPDRFSGSGSGTDFTLEISKVEAEDVGIYFCMQALQTPPTFGGGTKVEIKR
notes: also called CPA.7.34
In the case of B14, binding was characterised by a dissociation constant (Kd) of 14.2 nM.

B15: CPA.7.010 human IgG1 (antibody, V domains shown)
VH: EVQLVESGGGLVQPGRSLRLSCAASGFTFSSYAMHWVRQAPGKGLEWVAVISYDGSNKYYADSVKGRFTISRDNSKNTLYLQMNSLRAEDTAVYYCASSPIGYSYGYWGGMDVWGQGTTVTVSS
VL: QAVLTQPASLSASPGASASLTCTLRSGIDVRTNKIFWYQVKPGSPPQHLLTFQSDSDKQQGSGVPSRFSGSKDASANAGILIISGLQSEDEADYYCLIWHTSGWVFGGGTQLTVLG
B15 yielded a Kd of 21.9 nM.

B16: CPA.7.016 human IgG1 (antibody, V domains shown)
VH: EVQLVQSGAEVKKPGSSVKVSCKTSGGTFSSSAISWVRQAPGQGFEWMGGIIPIYGITDYAQKFQGRVTITTDESTSTAYMELSSLTSEDTAVYYCARDDTARRVRGVPYYYYYAMDVWGQGTTVTVSS
VL: EIVLTQSPGTLSLSPGERATLSCRASQSVSSYLAWYQQKPGQAPRLLIYDASNRATGIPARFSGSGSGTDFTLTISSLQSEDFAVYYCQQYDDWPQTFGQGTRLEIKR
B16 had a Kd of 22 nM.

B17: CPA.7.033 human IgG1 (antibody, V domains shown)
VH: QVQLVQSGAEVKKPGSSVKVSCKASGGTFSSSAISWVRQAPGQGFEWMGGIIPIYGITDYAQKFQGRVTITTDESTSTAYMELSSLTSEDTAVYYCARDDTARRVRGVPYYYYYAMDVWGQGTTVTVSS
VL: ETTLTQSPAFMSATPGDEVNISCKASQDIDDDVSWYQQKPGGAPIFLIQEASTLVPGIPPRFSGSGFGTDFTLTIKNMESEDAAYYFCLQHDNLPLTFGGGTKVDIKR
The molecule B17 returned a Kd of 12.8 nM.

B18: CPA.7.015 human IgG1 (antibody, V domains shown)
VH: QITLKESGGGVVQPGGSLRLSCAASGFTFSSYGMHWVRQAPGKGLEWVAFIRYDGSNKYYADSVKGRFTISRDNSKNTLYLQMNSLRAEDTAVYYCARDLFDFWWDGMDVWGQGTTVTVSS
VL: EIVLTQSPGTLSLSPGEKATLSCRVSQSVSSMYLAWYQQKPGQAPRLLIYGASYRATGIPDRFSGSGSGTDFNLTISRLEPEDFAVYYCQQYVSSPMYTFGLGTKLEIKR
In the case of B18, the dissociation constant (Kd) came out at 1.34 nM.

Source of the values: patent US20200385445A1 (COMPUGEN, published 2020).
